Data from publication doi:10.1101/2023.06.26.546492.

Molecular target: His-SUMO-tagged full-length SARS-CoV-2 nsp14 (SARS-CoV-2) (UniProt P0DTD1)
Assay: MST

## short SARS-CoV-2 nsp10 construct (from UniProt P0DTD1 4264-4385) (domain or fragment)
  Kd: 13.9 µM
